# T1: APBA1_2, Q02410
# T1 sequence (Q02410 742-832, limits assumed, looked up): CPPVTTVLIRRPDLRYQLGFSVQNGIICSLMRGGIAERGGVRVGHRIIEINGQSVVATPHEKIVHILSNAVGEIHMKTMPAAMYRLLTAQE
# T2: APBA2_2, Q99767
# T2 sequence (Q99767 654-744, limits assumed, looked up): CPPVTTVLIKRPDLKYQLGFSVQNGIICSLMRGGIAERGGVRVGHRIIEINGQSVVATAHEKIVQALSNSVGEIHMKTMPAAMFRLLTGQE
# T3: ARHGAP21, Q5T5U3
# T3 sequence (Q5T5U3 45-169, limits assumed, looked up): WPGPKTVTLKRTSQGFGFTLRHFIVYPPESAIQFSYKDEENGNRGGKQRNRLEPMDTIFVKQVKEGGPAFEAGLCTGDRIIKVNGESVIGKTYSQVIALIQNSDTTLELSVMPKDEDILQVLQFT
# T4: LNX2_3, Q8N448
# T4 sequence (Q8N448 463-564, limits assumed, looked up): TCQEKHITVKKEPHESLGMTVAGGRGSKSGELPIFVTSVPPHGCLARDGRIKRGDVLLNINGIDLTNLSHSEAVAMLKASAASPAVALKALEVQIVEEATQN
# T5: MPP2, Q14168
# T5 sequence (Q14168 180-250, limits assumed, looked up): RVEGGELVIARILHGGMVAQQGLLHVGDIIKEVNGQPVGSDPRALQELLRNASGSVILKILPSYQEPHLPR
# T6: MPP7, Q5T2T1
# T6 sequence (Q5T2T1 134-230, limits assumed, looked up): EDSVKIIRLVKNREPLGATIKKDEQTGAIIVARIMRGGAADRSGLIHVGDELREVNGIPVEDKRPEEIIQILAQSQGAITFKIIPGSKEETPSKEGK
# T7: NHERF3_1, Q5T2W1
# T7 sequence (Q5T2W1 4-100, limits assumed, looked up): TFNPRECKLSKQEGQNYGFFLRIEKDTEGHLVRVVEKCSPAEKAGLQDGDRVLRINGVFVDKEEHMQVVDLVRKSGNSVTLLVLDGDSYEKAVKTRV
# T8: PCLO, Q9Y6V0
# T8 sequence (Q9Y6V0 4491-4600, limits assumed, looked up): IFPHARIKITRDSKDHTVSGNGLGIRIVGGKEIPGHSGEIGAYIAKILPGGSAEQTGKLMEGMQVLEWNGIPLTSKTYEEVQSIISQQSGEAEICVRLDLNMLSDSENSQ
# T9: PDZRN3_1, Q9UPQ7
# T9 sequence (Q9UPQ7 244-349, limits assumed, looked up): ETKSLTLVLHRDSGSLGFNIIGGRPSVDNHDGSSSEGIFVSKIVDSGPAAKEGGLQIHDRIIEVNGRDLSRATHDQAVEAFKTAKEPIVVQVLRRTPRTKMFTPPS
# T10: SNTG1, Q9NSN8
# T10 sequence (Q9NSN8 52-150, limits assumed, looked up): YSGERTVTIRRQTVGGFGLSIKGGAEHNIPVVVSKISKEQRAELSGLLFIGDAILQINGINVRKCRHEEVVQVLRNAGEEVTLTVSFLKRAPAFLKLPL
# Assays:
# Assay in all cases: holdup assay
# Design in all cases: key: below the threshold = too weak to quantify, mostly under pKd 3.1 to 4
# APBA1_2, Q02410 = target: T1, APBA1_2, Q02410
# APBA2_2, Q99767 = target: T2, APBA2_2, Q99767
# ARHGAP21, Q5T5U3 = target: T3, ARHGAP21, Q5T5U3
# DLG1_1, Q12959 = target: DLG1_1, Q12959
# DLG4_2, P78352 = target: DLG4_2, P78352
# FRMPD4, Q14CM0 = target: FRMPD4, Q14CM0
# GRID2IP_2, A4D2P6 = target: GRID2IP_2, A4D2P6
# GRIP2_3, Q9C0E4 = target: GRIP2_3, Q9C0E4
# GRIP2_4, Q9C0E4 = target: GRIP2_4, Q9C0E4
# GRIP2_5, Q9C0E4 = target: GRIP2_5, Q9C0E4
# GRIP2_6, Q9C0E4 = target: GRIP2_6, Q9C0E4
# IL16_1, Q14005 = target: IL16_1, Q14005
# IL16_3, Q14005 = target: IL16_3, Q14005
# Inadl_10, Q8NI35 = target: Inadl_10, Q8NI35
# LNX1_1, Q8TBB1 = target: LNX1_1, Q8TBB1
# LNX1_3, Q8TBB1 = target: LNX1_3, Q8TBB1
# LNX2_3, Q8N448 = target: T4, LNX2_3, Q8N448
# MAGI2_4, Q86UL8 = target: MAGI2_4, Q86UL8
# MAGI2_5, Q86UL8 = target: MAGI2_5, Q86UL8
# MPP2, Q14168 = target: T5, MPP2, Q14168
# MPP7, Q5T2T1 = target: T6, MPP7, Q5T2T1
# NHERF3_1, Q5T2W1 = target: T7, NHERF3_1, Q5T2W1
# PCLO, Q9Y6V0 = target: T8, PCLO, Q9Y6V0
# PDZRN3_1, Q9UPQ7 = target: T9, PDZRN3_1, Q9UPQ7
# PTPN3, P26045 = target: PTPN3, P26045
# SCRIB_3, Q14160 = target: SCRIB_3, Q14160
# SNTG1, Q9NSN8 = target: T10, SNTG1, Q9NSN8
# TJP1_3, Q07157 = target: TJP1_3, Q07157
# [1] = plain residues with an end cap or a label only (N-terminal biotin on a linker: ahx)
# [2] = plain residues with an end cap or a label only (N-terminal biotin on a linker: ado-ado)
# Sequence of IL16_1, Q14005 (Q14005 210-306): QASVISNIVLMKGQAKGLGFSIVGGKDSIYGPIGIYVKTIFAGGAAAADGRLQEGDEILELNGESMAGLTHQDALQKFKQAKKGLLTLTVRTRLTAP
# Sequence of DLG4_2, P78352 (P78352 155-259): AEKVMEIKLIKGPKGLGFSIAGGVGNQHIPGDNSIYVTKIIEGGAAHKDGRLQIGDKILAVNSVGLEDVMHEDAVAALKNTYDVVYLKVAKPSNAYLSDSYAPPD
# Sequence of SCRIB_3, Q14160 (Q14160 999-1103): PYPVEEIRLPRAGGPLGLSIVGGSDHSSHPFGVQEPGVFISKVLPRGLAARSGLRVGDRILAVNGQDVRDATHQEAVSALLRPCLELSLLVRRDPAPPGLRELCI
# Sequence of LNX1_3, Q8TBB1 (Q8TBB1 500-596): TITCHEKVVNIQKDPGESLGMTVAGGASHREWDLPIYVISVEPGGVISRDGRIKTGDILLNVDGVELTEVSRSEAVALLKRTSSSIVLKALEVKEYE
# Sequence of FRMPD4, Q14CM0 (Q14CM0 67-160): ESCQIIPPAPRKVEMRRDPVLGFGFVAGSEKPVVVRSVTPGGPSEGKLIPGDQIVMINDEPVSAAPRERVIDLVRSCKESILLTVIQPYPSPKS
# Sequence of GRIP2_6, Q9C0E4 (Q9C0E4 648-740): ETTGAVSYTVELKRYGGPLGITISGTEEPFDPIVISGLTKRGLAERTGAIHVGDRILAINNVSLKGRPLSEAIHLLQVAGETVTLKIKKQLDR
# Sequence of GRIP2_3, Q9C0E4 (Q9C0E4 238-339): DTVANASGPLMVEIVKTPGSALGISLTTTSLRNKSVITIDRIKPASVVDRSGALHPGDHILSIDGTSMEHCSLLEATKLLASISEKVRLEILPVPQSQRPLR
# Sequence of PTPN3, P26045 (P26045 505-587): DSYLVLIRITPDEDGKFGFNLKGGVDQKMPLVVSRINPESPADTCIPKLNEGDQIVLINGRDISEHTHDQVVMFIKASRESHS
# Sequence of GRIP2_4, Q9C0E4 (Q9C0E4 446-548): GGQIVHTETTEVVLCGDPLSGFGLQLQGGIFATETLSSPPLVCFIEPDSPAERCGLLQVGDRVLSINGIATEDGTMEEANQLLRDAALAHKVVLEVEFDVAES
# Sequence of GRIP2_5, Q9C0E4 (Q9C0E4 544-642): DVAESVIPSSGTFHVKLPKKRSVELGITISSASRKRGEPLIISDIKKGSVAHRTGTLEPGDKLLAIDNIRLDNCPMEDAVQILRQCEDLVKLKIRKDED
# Sequence of Inadl_10, Q8NI35 (Q8NI35 1673-1763): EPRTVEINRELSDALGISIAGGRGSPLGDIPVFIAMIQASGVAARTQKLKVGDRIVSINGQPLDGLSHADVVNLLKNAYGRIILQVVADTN
# Sequence of MAGI2_4, Q86UL8 (Q86UL8 772-865): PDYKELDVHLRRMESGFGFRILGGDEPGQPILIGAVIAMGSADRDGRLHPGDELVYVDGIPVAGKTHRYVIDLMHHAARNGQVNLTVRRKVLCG
# Sequence of MAGI2_5, Q86UL8 (Q86UL8 915-1017): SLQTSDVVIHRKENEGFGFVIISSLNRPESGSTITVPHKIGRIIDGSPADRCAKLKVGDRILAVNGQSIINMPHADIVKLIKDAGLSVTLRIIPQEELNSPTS
# Sequence of IL16_3, Q14005 (Q14005 1107-1207): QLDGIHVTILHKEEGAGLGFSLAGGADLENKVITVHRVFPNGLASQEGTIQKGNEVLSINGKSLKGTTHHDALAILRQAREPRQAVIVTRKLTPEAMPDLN
# Sequence of TJP1_3, Q07157 (Q07157 416-512): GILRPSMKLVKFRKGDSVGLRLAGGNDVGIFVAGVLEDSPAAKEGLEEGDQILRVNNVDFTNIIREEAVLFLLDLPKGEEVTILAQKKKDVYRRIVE
# Sequence of LNX1_1, Q8TBB1 (Q8TBB1 261-371): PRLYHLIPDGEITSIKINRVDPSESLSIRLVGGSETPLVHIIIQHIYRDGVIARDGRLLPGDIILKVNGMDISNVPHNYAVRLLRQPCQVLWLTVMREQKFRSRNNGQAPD
# Sequence of GRID2IP_2, A4D2P6 (A4D2P6 272-370): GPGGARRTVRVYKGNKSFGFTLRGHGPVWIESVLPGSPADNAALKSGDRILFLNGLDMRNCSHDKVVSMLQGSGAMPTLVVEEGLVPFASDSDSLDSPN
binder,measurement,setting,value
"APSRKLNTEI [TIAM1, Q13009]",pKd,"APBA1_2, Q02410; [1]",below the threshold
same,pKd,"APBA2_2, Q99767; [1]",below the threshold
same,pKd,"ARHGAP21, Q5T5U3; [1]",below the threshold
same,pKd,"DLG1_1, Q12959; [1]",below the threshold
same,pKd,"DLG4_2, P78352; [1]",3.88
same,pKd,"FRMPD4, Q14CM0; [1]",below the threshold
same,pKd,"GRID2IP_2, A4D2P6; [1]",below the threshold
same,pKd,"GRIP2_3, Q9C0E4; [1]",below the threshold
same,pKd,"GRIP2_4, Q9C0E4; [1]",below the threshold
same,pKd,"GRIP2_5, Q9C0E4; [1]",below the threshold
same,pKd,"GRIP2_6, Q9C0E4; [1]",below the threshold
same,pKd,"IL16_1, Q14005; [1]",below the threshold
same,pKd,"IL16_3, Q14005; [1]",below the threshold
same,pKd,"Inadl_10, Q8NI35; [1]",below the threshold
same,pKd,"LNX1_1, Q8TBB1; [1]",below the threshold
same,pKd,"LNX1_3, Q8TBB1; [1]",below the threshold
same,pKd,"LNX2_3, Q8N448; [1]",below the threshold
same,pKd,"MAGI2_4, Q86UL8; [1]",below the threshold
same,pKd,"MAGI2_5, Q86UL8; [1]",below the threshold
same,pKd,"MPP2, Q14168; [1]",below the threshold
same,pKd,"MPP7, Q5T2T1; [1]",below the threshold
same,pKd,"NHERF3_1, Q5T2W1; [1]",below the threshold
same,pKd,"PCLO, Q9Y6V0; [1]",below the threshold
same,pKd,"PDZRN3_1, Q9UPQ7; [1]",below the threshold
same,pKd,"PTPN3, P26045; [1]",below the threshold
same,pKd,"SCRIB_3, Q14160; [1]",below the threshold
same,pKd,"SNTG1, Q9NSN8; [1]",below the threshold
same,pKd,"TJP1_3, Q07157; [1]",below the threshold
"TESNLQTSSC [CGN, Q9P2M7]",pKd,"APBA1_2, Q02410; [1]",below the threshold
same,pKd,"APBA2_2, Q99767; [1]",below the threshold
same,pKd,"ARHGAP21, Q5T5U3; [1]",3.51
same,pKd,"DLG1_1, Q12959; [1]",below the threshold
same,pKd,"DLG4_2, P78352; [1]",below the threshold
same,pKd,"FRMPD4, Q14CM0; [1]",below the threshold
same,pKd,"GRID2IP_2, A4D2P6; [1]",3.8
same,pKd,"GRIP2_3, Q9C0E4; [1]",below the threshold
same,pKd,"GRIP2_4, Q9C0E4; [1]",below the threshold
same,pKd,"GRIP2_5, Q9C0E4; [1]",below the threshold
same,pKd,"GRIP2_6, Q9C0E4; [1]",below the threshold
same,pKd,"IL16_1, Q14005; [1]",below the threshold
same,pKd,"IL16_3, Q14005; [1]",3.53
same,pKd,"Inadl_10, Q8NI35; [1]",3.6
same,pKd,"LNX1_1, Q8TBB1; [1]",3.47
same,pKd,"LNX1_3, Q8TBB1; [1]",below the threshold
same,pKd,"LNX2_3, Q8N448; [1]",below the threshold
same,pKd,"MAGI2_4, Q86UL8; [1]",3.53
same,pKd,"MAGI2_5, Q86UL8; [1]",below the threshold
same,pKd,"MPP2, Q14168; [1]",below the threshold
same,pKd,"MPP7, Q5T2T1; [1]",below the threshold
same,pKd,"NHERF3_1, Q5T2W1; [1]",below the threshold
same,pKd,"PCLO, Q9Y6V0; [1]",below the threshold
same,pKd,"PDZRN3_1, Q9UPQ7; [1]",below the threshold
same,pKd,"PTPN3, P26045; [1]",below the threshold
same,pKd,"SCRIB_3, Q14160; [1]",below the threshold
same,pKd,"SNTG1, Q9NSN8; [1]",below the threshold
same,pKd,"TJP1_3, Q07157; [1]",below the threshold
"RSSGGDDFWF [KCNV1, Q6PIU1]",pKd,"APBA1_2, Q02410; [2]",below the threshold
same,pKd,"APBA2_2, Q99767; [2]",below the threshold
same,pKd,"ARHGAP21, Q5T5U3; [2]",4.8
same,pKd,"DLG1_1, Q12959; [2]",below the threshold
same,pKd,"DLG4_2, P78352; [2]",below the threshold
same,pKd,"FRMPD4, Q14CM0; [2]",4.67
same,pKd,"GRID2IP_2, A4D2P6; [2]",below the threshold
same,pKd,"GRIP2_3, Q9C0E4; [2]",below the threshold
same,pKd,"GRIP2_4, Q9C0E4; [2]",below the threshold
same,pKd,"GRIP2_5, Q9C0E4; [2]",below the threshold
same,pKd,"GRIP2_6, Q9C0E4; [2]",below the threshold
same,pKd,"IL16_1, Q14005; [2]",below the threshold
same,pKd,"IL16_3, Q14005; [2]",below the threshold
same,pKd,"Inadl_10, Q8NI35; [2]",below the threshold
same,pKd,"LNX1_1, Q8TBB1; [2]",below the threshold
same,pKd,"LNX1_3, Q8TBB1; [2]",below the threshold
same,pKd,"LNX2_3, Q8N448; [2]",below the threshold
same,pKd,"MAGI2_4, Q86UL8; [2]",4.13
same,pKd,"MAGI2_5, Q86UL8; [2]",below the threshold
same,pKd,"MPP2, Q14168; [2]",below the threshold
same,pKd,"MPP7, Q5T2T1; [2]",4.45
same,pKd,"NHERF3_1, Q5T2W1; [2]",4.08
same,pKd,"PCLO, Q9Y6V0; [2]",below the threshold
same,pKd,"PDZRN3_1, Q9UPQ7; [2]",below the threshold
same,pKd,"PTPN3, P26045; [2]",4.35
same,pKd,"SCRIB_3, Q14160; [2]",4.29
same,pKd,"SNTG1, Q9NSN8; [2]",below the threshold
same,pKd,"TJP1_3, Q07157; [2]",below the threshold
"GTGYDRKDYV [CLDN3, O15551]",pKd,"APBA1_2, Q02410; [2]",4.24
same,pKd,"APBA2_2, Q99767; [2]",below the threshold
same,pKd,"ARHGAP21, Q5T5U3; [2]",3.83
same,pKd,"DLG1_1, Q12959; [2]",below the threshold
same,pKd,"DLG4_2, P78352; [2]",3.63
same,pKd,"FRMPD4, Q14CM0; [2]",3.56
same,pKd,"GRID2IP_2, A4D2P6; [2]",3.68
same,pKd,"GRIP2_3, Q9C0E4; [2]",below the threshold
same,pKd,"GRIP2_4, Q9C0E4; [2]",3.53
same,pKd,"GRIP2_5, Q9C0E4; [2]",below the threshold
same,pKd,"GRIP2_6, Q9C0E4; [2]",below the threshold
same,pKd,"IL16_1, Q14005; [2]",below the threshold
same,pKd,"IL16_3, Q14005; [2]",below the threshold
same,pKd,"Inadl_10, Q8NI35; [2]",below the threshold
same,pKd,"LNX1_1, Q8TBB1; [2]",below the threshold
same,pKd,"LNX1_3, Q8TBB1; [2]",3.49
same,pKd,"LNX2_3, Q8N448; [2]",below the threshold
same,pKd,"MAGI2_4, Q86UL8; [2]",3.85
same,pKd,"MAGI2_5, Q86UL8; [2]",below the threshold
same,pKd,"MPP2, Q14168; [2]",below the threshold
same,pKd,"MPP7, Q5T2T1; [2]",below the threshold
same,pKd,"NHERF3_1, Q5T2W1; [2]",4.55
same,pKd,"PCLO, Q9Y6V0; [2]",below the threshold
same,pKd,"PDZRN3_1, Q9UPQ7; [2]",below the threshold
same,pKd,"PTPN3, P26045; [2]",4.04
same,pKd,"SCRIB_3, Q14160; [2]",below the threshold
same,pKd,"SNTG1, Q9NSN8; [2]",below the threshold
same,pKd,"TJP1_3, Q07157; [2]",3.54

# From publication PMC9482650, “Quantitative fragmentomics allow affinity mapping of interactomes” (Nature Communications, 2022)
